For eight molecules, Ki results are on record in patent US20240344040A1, “PROKARYOTIC AND EUKARYOTIC CELLS WITH BIOSYNTHESIZED SULFOTYROSINE FOR GENETIC INCORPORATION” (William Marsh Rice University, priority 2023, published 2024).

Non-standard residues stand in square brackets, D forms with d. sY = N[C@@H](Cc1ccc(OS(=O)(=O)O)cc1)C(=O)O

Sequences and labels used below:
B1: madanin-1 with a single sulfotyrosine at Tyr32 (peptide)
chain: MYPERDSAKEGNQEQERALHVKVQKRTDGDAD[sY]DEYEEDGTTPTPDPTAPTAKPRLRGNKPHHHHHH
B2: wildtype madanin-1 (peptide)
chain: MYPERDSAKEGNQEQERALHVKVQKRTDGDADYDEYEEDGTTPTPDPTAPTAKPRLRGNKPHHHHHH
B3: chimadanin with a single biosynthesized sulfotyrosine at Tyr28 (peptide)
chain: MQPKEKTKGVEVEGNPATLISARQMDVSYDEYEDNGPDVIPGEPAKPRGGPKNGAASGKFDQIPDFSSESHHHHHHH
modifications: sulfotyrosine at Tyr28 (counted without the initiator Met; residue 29 of SEQ ID NO: 107 as printed)
B4: chimadanin doubly sulfated at both Tyr28 and Tyr31 (peptide)
chain: MQPKEKTKGVEVEGNPATLISARQMDVSYDEYEDNGPDVIPGEPAKPRGGPKNGAASGKFDQIPDFSSESHHHHHHH
modifications: sulfotyrosine at Tyr28 and Tyr31 (counted without the initiator Met; residues 29 and 32 of SEQ ID NO: 107 as printed)
B5: wildtype chimadanin (peptide)
chain: MQPKEKTKGVEVEGNPATLISARQMDVSYDEYEDNGPDVIPGEPAKPRGGPKNGAASGKFDQIPDFSSESHHHHHHH
B6: chimadanin with a single biosynthesized sulfotyrosine at Tyr31 (peptide)
chain: MQPKEKTKGVEVEGNPATLISARQMDVSYDEYEDNGPDVIPGEPAKPRGGPKNGAASGKFDQIPDFSSESHHHHHHH
modifications: sulfotyrosine at Tyr31 (counted without the initiator Met; residue 32 of SEQ ID NO: 107 as printed)
B7: madanin-1 sulfated at both Tyr32 and Tyr35 (peptide)
chain: MYPERDSAKEGNQEQERALHVKVQKRTDGDAD[sY]DE[sY]EEDGTTPTPDPTAPTAKPRLRGNKPHHHHHH
B8: madanin-1 with a single sulfotyrosine at Tyr35 (peptide)
chain: MYPERDSAKEGNQEQERALHVKVQKRTDGDADYDE[sY]EEDGTTPTPDPTAPTAKPRLRGNKPHHHHHH

The target in the assay is thrombin. The assay can be described thus: chromogenic thrombin amidolytic activity assay; tight-binding model (Morrison equation).
B1 yielded a Ki of 1.3 nM.
As for B2, the figure is 16 nM.
As for B3, the figure is 0.6 nM; as for B4, 0.1 nM; as for B5, 12.9 nM.
As for B6, the figure is 1.5 nM; as for B7, 0.5 nM.
B8 returned a Ki of 6.1 nM.
